Blank lines part the entries; values can stand above or below the molecule they belong to.
Assays:
HOIP-PUB domain [1] = target: T1, HOIP-PUB domain (Homo sapiens, UniProt Q96EP0); experiment: ITC of HOIP-PUB domain titrated into peptide or protein; assay type: binding; conditions: 398 μM HOIP-PUB domain titrated into CYLD-USP domain at 40 μM; 293 K; 25 mM HEPES (pH 7.5), 150 mM NaCl, 0.5 mM TCEP
T1 sequence (Q96EP0 71-142 limits assumed): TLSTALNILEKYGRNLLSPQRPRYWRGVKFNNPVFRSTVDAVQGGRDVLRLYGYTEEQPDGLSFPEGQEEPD
Procedure: (B) ITC characterization of the interactions between (A) the HOIP-PUB domain (597 μM) and a peptide derived from the PIM motif (58 μM) of OTULIN and (B) the HOIP-PUB domain (398 μM) and the CYLD-USP domain (40 μM). For each titration, the raw data and normalized integrated heats are reported. (C) HEK293 cells were transfected with different combinations of CYLD, SPATA2, and OTULIN together with FLAG-HOIP. Protein complexes were subsequently purified using anti-FLAG beads and analyzed by western blotting. (D) SPATA2 expression was suppressed in FLAG-HOIP transfected HEK293 cells using siRNA. FLAG-HOIP was subsequently immunoprecipitated and tested for associated proteins by western blot analysis. (E) A549 cells were transfected with control or SPATA2 siRNA. After 72 hr, cells were subjected to TNFR1-SC purification and analyzed by western blotting. […] They name protein/peptide pairs, not small molecules. / Panel B, Kd: the lowered letter after K is small; read as d.
Samples were subsequently analyzed by western blotting. (B) HOIP-deficient A549 cells were reconstituted with HOIP-WT or HOIP-N102A. […] Samples were analyzed by western blotting. […] Following anti-GFP IP, SPATA association with HOIP and CYLD was evaluated by western blot analysis. […] Bound GST-containing protein was subsequently detected by HRP immunofluorescence, and the signal of both membranes was overlaid. […]

HOIP-PUB domain [2] = target: T2, HOIP-PUB domain (UniProt Q96EP0 71-142); experiment: ITC; 293 K, ITC-200; 25 mM HEPES pH 7.5, 150 mM NaCl, 0.5 mM TCEP; 20 injections of 2 ul HOIP-PUB domain into peptide or domain in the cell; 1:1 binding model; conditions: both partners purified
T2 construct: PUB domain of HOIP, as used for ITC; also called PUB domain of HOIP
T2 sequence (looked up): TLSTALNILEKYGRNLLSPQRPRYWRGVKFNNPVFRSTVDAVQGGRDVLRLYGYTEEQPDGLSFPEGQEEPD

HOIP-PUB domain [3] = target: T3, HOIP-PUB domain (UniProt Q96EP0 71-142); experiment: ITC
T3 chain: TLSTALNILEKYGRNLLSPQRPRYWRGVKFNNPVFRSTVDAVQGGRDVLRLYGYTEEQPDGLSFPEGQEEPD

direct interaction by ITC (HOIP-PUB domain [1]): could not detect a direct interaction
B1: CYLD-USP: USP domain of CYLD, protein domain titrated by ITC (protein)
chain: KGIQGHYNSCYLDSTLFCLFAFSSVLDTVLLRPKEKNDVEYYSETQELLRTEIVNPLRIYGYVCATKIMKLRKILEKVEAASGFTSEEKDPEEFLNILFHHILRVEPLLKIRSAGQKVQDCYFYQIFMEKNEKVGVPTIQQLLEWSFINSNLKFAEAPSCLIIQMPRFGKDFKLFKKIFPSLELNITDLLEDTPRQCRICGGLAMYECRECYDDPDISAGKIKQFCKTCNTQVHLHPKRLNHKYNPVSLPKDLPDWDWRHGCIPCQNMELFAVLCIETSHYVAFVKYGKDDSAWLFFDSMADRDGGQNGFNIPQVTPCPEVGEYLKMSLEDLHSLDSRRIQGCARRLLCDAYMCMYQSP

Kd (HOIP-PUB domain [2]): 0.9 µM
B2: peptide derived from the C-terminal region of SPATA2 (peptide)
peptide: RGTYFSTQDDVDLYTDSEPR
notes: SPATA2 PIM peptide; also called SPATA2 peptide; PIM of SPATA2

Kd (HOIP-PUB domain [3]): 3.2 µM
B3: peptide derived from the PIM motif of OTULIN (peptide)
peptide: AEHEEDMYRA

Reference: paper PMC5009064 (Cell Reports, 2016)
